System: HSV-1 (KOS) gL86
Assay: HSV-1 entry into CHO-K1 cells expressing gD receptors, virus pre-incubated with CN (Example 2)
Assay type: cell-based, herpes simplex virus type-1
Conditions: virus 30 pfu/cell pre-incubated 90 min, read after 6 hr
Procedure: Viral Entry Assay. Viral entry assays were based on quantitation of β-galactosidase expressed from the viral genome in which β-galactosidase expression is inducible by HSV infection. Cells were transiently transfected in 6-well tissue culture dishes, using Lipofectamine 2000 (In vitrogen Corp) with plasmids expressing HSV-1 entry receptors (necitn-1, HVEM and 3-OST-3 expression plasmids) at 1.5 μg per well in 1 ml. At 24 hr post-transfection, cells were re-plated in 96-well tissue culture dishes (2×10^4 cells per well) at least 16 hr prior to infection. Cells were washed and exposed to serially dilute pre-incubated virus with […] or with 1×PBS at two fold dilutions for 2 hr at room temperature. In a parallel experiment the cells were also pre-incubated with NBE for 2 hr at room temperature before infection with virus. Later the cells were washed with 1×PBS and allowed 6 hr at 37° C. before solubilization in 100 μl of PBS containing 0.5% NP-40 and the -galactosidase substrate, o-nitro-phenyl-D-galactopyranoside (ONPG; ImmunoPure, PIERCE, Rockford, Ill., 3 mg/ml). The enzymatic activity was monitored at 410 nm by spectrophotometry at several time points after the addition of ONPG in order to define the interval over which the generation of the product was linear with time. Microscopy was performed using 20×objective of the microscope (Nikon). The slide book version 3.0 was used for images. All experiments were repeated a minimum of three times.
CN blocks herpes simplex virus type-1 (HSV-1) entry into CHO-K1 cells expressing gD receptors. […] After 6 hr at 37° C., the cells were washed, permeabilized with 100 μl of PBS containing 0.5% NP-40 and incubated with ONPG substrate (3.0 mg/ml) for quantitation of β-galactosidase activity expressed from the input viral genome. The enzymatic activity was measured at an optical density of 410 nm (OD 410).

Measured: HSV-1 viral entry (β-galactosidase activity, OD 410)

B1: contortrostatin (protein)
chain: DAPANPCCDAATCKLTTGSQCADGLCCDQCKFMKEGTVCRRARGDDLDDYCNGISAGCPRNPFHA
blocked viral entry: CHO-K1 cells expressing 3-OST-3 | CHO-K1 cells expressing HVEM | CHO-K1 cells expressing nectin-1

— patent US20130177528A1, “COMPOSITIONS AND METHODS FOR INHIBITING VIRAL INFECTION” (WESTERN UNIVERSITY OF HEALTH SCIENCES, priority 2011, published 2013)
